Measurements: IntAct's records for PubMed 32296183

B1: Very-long-chain enoyl-CoA reductase (Homo sapiens), Q9NZ01 (parent)
chain: MKHYEVEILDAKTREKLCFLDKVEPHATIAEIKNLFTKTHPQWYPARQSLRLDPKGKSLKDEDVLQKLPVGTTATLYFRDLGAQISWVTVFLTEYAGPLFIYLLFYFRVPFIYGHKYDFTSSRHTVVHLACICHSFHYIKRLLETLFVHRFSHGTMPLRNIFKNCTYYWGFAAWMAYYINHPLYTPPTYGAQQVKLALAIFVICQLGNFSIHMALRDLRPAGSKTRKIPYPTKNPFTWLFLLVSCPNYTYEVGSWIGFAIMTQCLPVALFSLVGFTQMTIWAKGKHRSYLKEFRDYPPLRMPIIPFLL
partner: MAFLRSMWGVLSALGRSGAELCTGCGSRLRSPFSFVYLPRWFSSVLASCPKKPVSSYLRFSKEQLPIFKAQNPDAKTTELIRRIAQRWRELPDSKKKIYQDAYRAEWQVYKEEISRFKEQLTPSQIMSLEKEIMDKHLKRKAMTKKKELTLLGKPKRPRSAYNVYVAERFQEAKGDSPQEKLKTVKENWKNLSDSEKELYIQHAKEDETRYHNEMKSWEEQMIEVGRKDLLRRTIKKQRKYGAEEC
B2: Golgi SNAP receptor complex member 2 (Homo sapiens), O14653 (parent)
chain: MDPLFQQTHKQVHEIQSCMGRLETADKQSVHIVENEIQASIDQIFSRLERLEILSSKEPPNKRQNARLRVDQLKYDVQHLQTALRNFQHRRHAREQQERQREELLSRTFTTNDSDTTIPMDESLQFNSSLQKVHNGMDDLILDGHNILDGLRTQRLTLKGTQKKILDIANMLGLSNTVMRLIEKRAFQDKYFMIGGMLLTCVVMFLVVQYLT
partner: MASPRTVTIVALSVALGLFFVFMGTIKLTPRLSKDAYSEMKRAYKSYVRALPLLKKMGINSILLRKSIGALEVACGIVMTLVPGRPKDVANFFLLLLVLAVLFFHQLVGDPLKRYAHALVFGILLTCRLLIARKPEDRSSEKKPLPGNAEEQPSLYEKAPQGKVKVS
B3: Ceroid-lipofuscinosis neuronal protein 6 (Homo sapiens), Q9NWW5 (parent)
chain: MEATRRRQHLGATGGPGAQLGASFLQARHGSVSADEAARTAPFHLDLWFYFTLQNWVLDFGRPIAMLVFPLEWFPLNKPSVGDYFHMAYNVITPFLLLKLIERSPRTLPRSITYVSIIIFIMGASIHLVGDSVNHRLLFSGYQHHLSVRENPIIKNLKPETLIDSFELLYYYDEYLGHCMWYIPFFLILFMYFSGCFTASKAESLIPGPALLLVAPSGLYYWYLVTEGQIFILFIFTFFAMLALVLHQKRKRLFLDSNGLFLFSSFALTLLLVALWVAWLWNDPVLRKKYPGVIYVPEPWAFYTLHVSSRH
partner: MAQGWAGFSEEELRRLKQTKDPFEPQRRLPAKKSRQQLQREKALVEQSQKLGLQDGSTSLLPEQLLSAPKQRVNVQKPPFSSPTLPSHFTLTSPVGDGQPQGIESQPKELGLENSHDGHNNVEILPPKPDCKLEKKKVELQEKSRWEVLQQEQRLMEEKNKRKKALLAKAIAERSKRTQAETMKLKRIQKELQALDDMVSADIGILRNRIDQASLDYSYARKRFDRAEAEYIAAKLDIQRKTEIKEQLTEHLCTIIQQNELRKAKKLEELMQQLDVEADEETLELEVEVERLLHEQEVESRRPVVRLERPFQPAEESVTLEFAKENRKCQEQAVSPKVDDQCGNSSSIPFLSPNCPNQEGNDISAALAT
B4: Catenin alpha-3 (Homo sapiens), Q9UI47-2 (parent)
chain: MSAETPITLNIDPQDLQVQTFTVEKLLEPLIIQVTTLVNCPQNPSSRKKGRSKRASVLLASVEEATWNLLDKGEKIAQEATVLKDELTASLEEVRKESEALKVSAERFTDDPCFLPKREAVVQAARALLAAVTRLLILADMIDVMCLLQHVSAFQRTFESLKNVANKSDLQKTYQKLGKELENLDYLAFKRQQDLKSPNQRDEIAGARASLKENSPLLHSICSACLEHSDVASLKASKDTVCEEIQNALNVISNASQGIQNMTTPPEPQAATLGSALDELENLIVLNPLTVTEEEIRPSLEKRLEAIISGAALLADSSCTRDLHRERIIAECNAIRQALQDLLSEYMNNAGKKERSNTLNIALDNMCKKTRDLRRQLRKAIIDHVSDSFLDTTVPLLVLIEAAKNGREKEIKEYAAIFHEHTSRLVEVANLACSMSTNEDGIKIVKIAANHLETLCPQIINAALALAARPKSQAVKNTMEMYKRTWENHIHVLTEAVDDITSIDDFLAVSGMFLFF
partner: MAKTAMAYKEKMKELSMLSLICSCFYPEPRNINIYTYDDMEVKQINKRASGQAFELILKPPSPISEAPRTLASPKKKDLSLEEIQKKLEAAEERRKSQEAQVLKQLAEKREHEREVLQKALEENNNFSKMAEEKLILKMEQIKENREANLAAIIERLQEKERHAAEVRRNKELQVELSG
B5: Golgi SNAP receptor complex member 2 (Homo sapiens), O14653 (parent)
chain: B2 chain
partner: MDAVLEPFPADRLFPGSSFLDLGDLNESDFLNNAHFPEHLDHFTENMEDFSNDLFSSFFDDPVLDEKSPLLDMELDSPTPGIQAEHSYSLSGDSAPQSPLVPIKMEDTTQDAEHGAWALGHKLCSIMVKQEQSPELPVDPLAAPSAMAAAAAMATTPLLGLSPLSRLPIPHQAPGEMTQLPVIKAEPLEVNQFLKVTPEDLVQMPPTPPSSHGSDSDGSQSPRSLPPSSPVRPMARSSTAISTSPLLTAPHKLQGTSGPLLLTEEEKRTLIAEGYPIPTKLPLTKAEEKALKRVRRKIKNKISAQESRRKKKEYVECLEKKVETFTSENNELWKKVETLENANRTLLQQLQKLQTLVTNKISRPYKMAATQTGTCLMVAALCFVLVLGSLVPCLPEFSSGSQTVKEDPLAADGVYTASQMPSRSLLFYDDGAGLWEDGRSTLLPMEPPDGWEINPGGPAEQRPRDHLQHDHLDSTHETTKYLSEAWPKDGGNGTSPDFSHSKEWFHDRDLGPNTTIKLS
B6: Very-long-chain enoyl-CoA reductase (Homo sapiens), Q9NZ01 (parent)
chain: B1 chain
partner: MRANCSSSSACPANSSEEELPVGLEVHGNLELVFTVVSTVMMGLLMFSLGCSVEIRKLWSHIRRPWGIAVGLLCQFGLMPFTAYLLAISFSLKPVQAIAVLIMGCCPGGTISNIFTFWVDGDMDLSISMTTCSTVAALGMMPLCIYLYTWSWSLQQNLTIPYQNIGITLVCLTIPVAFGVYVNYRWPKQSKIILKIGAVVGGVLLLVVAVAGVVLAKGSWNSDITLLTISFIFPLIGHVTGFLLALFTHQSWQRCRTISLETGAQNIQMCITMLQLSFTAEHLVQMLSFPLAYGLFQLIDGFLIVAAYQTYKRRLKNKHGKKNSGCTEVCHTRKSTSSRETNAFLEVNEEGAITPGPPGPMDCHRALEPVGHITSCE
B7: Golgi SNAP receptor complex member 2 (Homo sapiens), O14653 (parent)
chain: B2 chain
partner: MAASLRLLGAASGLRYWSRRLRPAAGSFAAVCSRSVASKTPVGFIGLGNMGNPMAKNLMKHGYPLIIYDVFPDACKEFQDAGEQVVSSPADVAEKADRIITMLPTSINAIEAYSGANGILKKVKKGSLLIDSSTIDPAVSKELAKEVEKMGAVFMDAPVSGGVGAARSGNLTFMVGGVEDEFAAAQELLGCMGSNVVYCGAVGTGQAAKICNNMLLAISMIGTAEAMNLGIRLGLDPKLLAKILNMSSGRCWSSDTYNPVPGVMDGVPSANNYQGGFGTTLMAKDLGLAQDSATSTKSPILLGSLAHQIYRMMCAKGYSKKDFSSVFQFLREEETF
B8: Ceroid-lipofuscinosis neuronal protein 6 (Homo sapiens), Q9NWW5 (parent)
chain: B3 chain
partner: B5 partner
B9: Ceroid-lipofuscinosis neuronal protein 6 (Homo sapiens), Q9NWW5 (parent)
chain: B3 chain
partner: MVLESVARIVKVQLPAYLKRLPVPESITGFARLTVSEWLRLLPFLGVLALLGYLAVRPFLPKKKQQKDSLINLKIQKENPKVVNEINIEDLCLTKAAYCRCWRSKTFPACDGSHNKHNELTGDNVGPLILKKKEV
B10: Transmembrane protein 43 (Homo sapiens), Q9BTV4 (parent)
chain: MAANYSSTSTRREHVKVKTSSQPGFLERLSETSGGMFVGLMAFLLSFYLIFTNEGRALKTATSLAEGLSLVVSPDSIHSVAPENEGRLVHIIGALRTSKLLSDPNYGVHLPAVKLRRHVEMYQWVETEESREYTEDGQVKKETRYSYNTEWRSEIINSKNFDREIGHKNPSAMAVESFMATAPFVQIGRFFLSSGLIDKVDNFKSLSLSKLEDPHVDIIRRGDFFYHSENPKYPEVGDLRVSFSYAGLSGDDPDLGPAHVVTVIARQRGDQLVPFSTKSGDTLLLLHHGDFSAEEVFHRELRSNSMKTWGLRAAGWMAMFMGLNLMTRILYTLVDWFPVFRDLVNIGLKAFAFCVATSLTLLTVAAGWLFYRPLWALLIAGLALVPILVARTRVPAKKLE
partner: B9 partner
B11: Golgi SNAP receptor complex member 2 (Homo sapiens), O14653 (parent)
chain: B2 chain
partner: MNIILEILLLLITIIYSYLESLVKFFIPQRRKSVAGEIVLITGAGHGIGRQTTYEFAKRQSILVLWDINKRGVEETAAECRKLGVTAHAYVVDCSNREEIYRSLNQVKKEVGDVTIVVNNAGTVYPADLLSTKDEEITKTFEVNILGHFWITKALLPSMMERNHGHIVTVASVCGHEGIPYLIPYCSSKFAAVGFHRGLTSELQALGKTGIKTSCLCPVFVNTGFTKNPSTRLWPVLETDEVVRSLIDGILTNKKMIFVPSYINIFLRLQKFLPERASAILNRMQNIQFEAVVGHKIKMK
B12: Very-long-chain enoyl-CoA reductase (Homo sapiens), Q9NZ01 (parent)
chain: B1 chain
partner: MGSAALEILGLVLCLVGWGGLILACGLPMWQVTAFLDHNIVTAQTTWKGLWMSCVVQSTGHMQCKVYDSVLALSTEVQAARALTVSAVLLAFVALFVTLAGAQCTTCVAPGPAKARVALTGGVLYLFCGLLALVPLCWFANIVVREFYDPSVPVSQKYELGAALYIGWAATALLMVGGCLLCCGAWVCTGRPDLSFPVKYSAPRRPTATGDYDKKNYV

Variants of: B1
Settings: with tfam_human TFAM

effect of a mutation on the interaction	Variant
disrupting interaction strength	P182L

Variants of: B2
Settings: with nacho_human TMEM35A

effect of a mutation on the interaction	Variant
with no effect	G144W

Variants of: B3
Settings: with gorab_human GORAB

effect of a mutation on the interaction	Variant
with no effect	G123D
with no effect	R6T
with no effect	L47F

Variants of: B4
Settings: with stmn2_human STMN2, Q93045

effect of a mutation on the interaction	Variant
with no effect	V94D

Variants of: B5
Settings: with cr3l1_human CREB3L1, Q96BA8

effect of a mutation on the interaction	Variant
with no effect	G144W

Variants of: B6
Settings: with soat_human SLC10A6, Q3KNW5

effect of a mutation on the interaction	Variant
with no effect	P182L

Variants of: B7
Settings: with 3hidh_human HIBADH

effect of a mutation on the interaction	Variant
disrupting interaction strength	G144W

Variants of: B8
Settings: with cr3l1_human CREB3L1, Q96BA8

effect of a mutation on the interaction	Variant
with no effect	L47F
with no effect	G123D
with no effect	R6T

Variants of: B9
Settings: with cisd2_human CISD2, Q8N5K1

effect of a mutation on the interaction	Variant
with no effect	L47F
with no effect	R6T
with no effect	G123D

Variants of: B10
Settings: with cisd2_human CISD2, Q8N5K1

effect of a mutation on the interaction	Variant
disrupting interaction strength	E85K
with no effect	Y371H
with no effect	I91V

Variants of: B11
Settings: with dhb13_human HSD17B13, Q7Z5P4

effect of a mutation on the interaction	Variant
with no effect	G144W

Variants of: B12
Settings: with cld5_human CLDN5, O00501

effect of a mutation on the interaction	Variant
disrupting interaction strength	P182L
